{"source": "patent US9176064B2", "about": "“Bisubstrate fluorescent probes for protein kinase CK2” (University of Tartu, priority 2012, dated 2015)", "assay_in_all_cases": "Kinase panel residual activity", "assay_type_in_all_cases": "biochemical", "details_in_all_cases": "compound at 1 micromolar", "key": {"PIM1": {"target": "PIM1 (Homo sapiens, UniProt P11309)", "sequence (P11309 whole entry, species assumed)": "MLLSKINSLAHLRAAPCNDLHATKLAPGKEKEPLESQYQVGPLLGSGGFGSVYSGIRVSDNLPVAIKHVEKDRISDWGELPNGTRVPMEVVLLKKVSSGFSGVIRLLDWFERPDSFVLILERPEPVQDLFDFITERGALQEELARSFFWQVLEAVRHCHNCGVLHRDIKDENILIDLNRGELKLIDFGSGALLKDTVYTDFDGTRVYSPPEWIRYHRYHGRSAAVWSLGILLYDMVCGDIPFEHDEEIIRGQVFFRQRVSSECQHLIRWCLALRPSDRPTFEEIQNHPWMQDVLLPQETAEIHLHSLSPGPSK"}, "EF2K": {"target": "EF2K (Homo sapiens, UniProt O00418)", "sequence (O00418 whole entry)": "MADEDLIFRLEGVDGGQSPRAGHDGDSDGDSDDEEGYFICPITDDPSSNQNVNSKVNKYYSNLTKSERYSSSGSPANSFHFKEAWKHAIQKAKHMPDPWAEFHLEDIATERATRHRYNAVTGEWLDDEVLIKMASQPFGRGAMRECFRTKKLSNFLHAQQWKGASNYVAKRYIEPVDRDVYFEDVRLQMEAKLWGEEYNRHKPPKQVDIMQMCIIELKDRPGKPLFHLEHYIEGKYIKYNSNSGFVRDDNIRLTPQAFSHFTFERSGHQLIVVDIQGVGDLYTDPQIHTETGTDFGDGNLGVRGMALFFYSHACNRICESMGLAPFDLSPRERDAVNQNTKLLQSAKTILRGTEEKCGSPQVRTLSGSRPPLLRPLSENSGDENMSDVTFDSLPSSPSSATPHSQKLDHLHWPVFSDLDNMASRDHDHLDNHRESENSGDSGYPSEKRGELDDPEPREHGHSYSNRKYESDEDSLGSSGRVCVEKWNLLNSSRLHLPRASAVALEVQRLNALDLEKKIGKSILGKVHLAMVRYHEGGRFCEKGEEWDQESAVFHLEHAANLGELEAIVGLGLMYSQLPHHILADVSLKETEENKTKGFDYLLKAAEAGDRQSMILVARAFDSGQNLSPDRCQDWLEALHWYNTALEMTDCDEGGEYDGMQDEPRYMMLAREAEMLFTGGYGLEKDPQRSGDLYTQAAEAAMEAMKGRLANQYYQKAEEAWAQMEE"}, "PRK2": {"target": "PRK2 (Homo sapiens, UniProt Q16513)", "sequence (Q16513 whole entry, species assumed)": "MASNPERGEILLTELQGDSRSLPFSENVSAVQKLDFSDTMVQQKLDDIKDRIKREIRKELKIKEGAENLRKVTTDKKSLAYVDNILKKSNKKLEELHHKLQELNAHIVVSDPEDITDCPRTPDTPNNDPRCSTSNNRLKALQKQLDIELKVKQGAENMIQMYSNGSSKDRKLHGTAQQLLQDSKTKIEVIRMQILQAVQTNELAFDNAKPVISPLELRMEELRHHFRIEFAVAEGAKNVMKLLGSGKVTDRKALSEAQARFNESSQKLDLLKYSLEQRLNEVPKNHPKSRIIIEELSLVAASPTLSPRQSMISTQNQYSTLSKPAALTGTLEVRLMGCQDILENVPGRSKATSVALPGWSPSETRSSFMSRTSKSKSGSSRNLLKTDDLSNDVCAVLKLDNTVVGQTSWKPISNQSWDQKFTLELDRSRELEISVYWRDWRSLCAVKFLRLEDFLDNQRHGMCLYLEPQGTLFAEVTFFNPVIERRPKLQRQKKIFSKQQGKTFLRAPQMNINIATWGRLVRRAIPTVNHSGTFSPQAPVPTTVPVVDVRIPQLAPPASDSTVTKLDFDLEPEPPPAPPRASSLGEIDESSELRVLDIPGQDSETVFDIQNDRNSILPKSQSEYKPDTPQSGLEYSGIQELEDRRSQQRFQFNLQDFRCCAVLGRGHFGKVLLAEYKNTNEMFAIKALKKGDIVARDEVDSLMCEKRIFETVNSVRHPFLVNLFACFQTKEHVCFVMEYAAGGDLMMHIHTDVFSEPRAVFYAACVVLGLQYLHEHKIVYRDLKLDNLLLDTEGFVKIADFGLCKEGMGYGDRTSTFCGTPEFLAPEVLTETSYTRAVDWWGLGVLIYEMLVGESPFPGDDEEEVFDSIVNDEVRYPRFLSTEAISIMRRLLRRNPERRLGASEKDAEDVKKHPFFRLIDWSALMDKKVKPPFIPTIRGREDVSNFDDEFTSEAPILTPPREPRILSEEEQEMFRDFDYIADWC"}, "TBK1": {"target": "T1, TBK1 (Homo sapiens, UniProt Q9UHD2)", "T1 sequence (Q9UHD2 1-729)": "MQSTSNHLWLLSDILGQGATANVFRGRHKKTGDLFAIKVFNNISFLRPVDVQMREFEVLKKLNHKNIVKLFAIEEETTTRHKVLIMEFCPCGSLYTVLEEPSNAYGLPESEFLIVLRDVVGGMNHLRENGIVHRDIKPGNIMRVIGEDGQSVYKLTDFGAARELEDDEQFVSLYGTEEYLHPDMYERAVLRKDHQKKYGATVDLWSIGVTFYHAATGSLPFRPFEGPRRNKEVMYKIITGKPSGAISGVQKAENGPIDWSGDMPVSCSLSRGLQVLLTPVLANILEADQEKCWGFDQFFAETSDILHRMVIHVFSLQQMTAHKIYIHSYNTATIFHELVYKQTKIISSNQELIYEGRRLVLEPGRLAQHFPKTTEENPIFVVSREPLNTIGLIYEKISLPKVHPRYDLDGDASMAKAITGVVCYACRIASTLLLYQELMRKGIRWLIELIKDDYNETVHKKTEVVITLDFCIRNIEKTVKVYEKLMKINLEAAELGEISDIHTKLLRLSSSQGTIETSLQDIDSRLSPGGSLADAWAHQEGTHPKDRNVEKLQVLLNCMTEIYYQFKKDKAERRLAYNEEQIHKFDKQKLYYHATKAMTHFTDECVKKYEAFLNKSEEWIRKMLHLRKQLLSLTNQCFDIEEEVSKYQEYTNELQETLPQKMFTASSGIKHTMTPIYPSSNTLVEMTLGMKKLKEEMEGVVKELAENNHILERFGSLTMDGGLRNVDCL"}}, "note": "Where a SMILES comes first, the peptide text is derived from it. [ ]: non-standard residue; d: D form. The star is where a group is joined. X1 = O=C(CCCCCCCn1cnc2c(Br)c(Br)c(Br)c(Br)c21)*"}
{"smiles": "NCCCC[C@H](NC(=O)[C@H](CC(=O)O)NC(=O)[C@H](CC(=O)O)NC(=O)[C@H](CC(=O)O)NC(=O)[C@H](CC(=O)O)NC(=O)[C@H](CC(=O)O)NC(=O)[C@@H](CC(=O)O)NC(=O)CCCCCCCn1cnc2c(Br)c(Br)c(Br)c(Br)c21)C(=O)O", "note": "[TBBI-OcA-(D-Asp)-(L-Asp)5-(L-Lys)-OH] (X1-[dD]DDDDDK-OH)", "values": [{"measurement": "remaining activity at 1 µM", "setting": "PIM1", "result": 62, "unit": "%"}, {"measurement": "remaining activity at 1 µM", "setting": "EF2K", "result": 80, "unit": "%"}, {"measurement": "remaining activity at 1 µM", "setting": "PRK2", "result": 92, "unit": "%"}, {"measurement": "remaining activity at 1 µM", "setting": "TBK1", "result": 93, "unit": "%"}]}
